From paper PMC3305813 (Neuron, 2012)

How the values were obtained:
CYSL-1 = CYSL-1 (Caenorhabditis elegans, UniProt Q93244, R259K); assay: O-acetylserine sulfhydrylase assay; format: biochemical; details: co-substrate sulfide
recombinant CYSL-1 = biological target: T1, recombinant CYSL-1 (C. elegans, UniProt Q93244 1-341); assay: other fluorescence titration
T1 sequence (looked up): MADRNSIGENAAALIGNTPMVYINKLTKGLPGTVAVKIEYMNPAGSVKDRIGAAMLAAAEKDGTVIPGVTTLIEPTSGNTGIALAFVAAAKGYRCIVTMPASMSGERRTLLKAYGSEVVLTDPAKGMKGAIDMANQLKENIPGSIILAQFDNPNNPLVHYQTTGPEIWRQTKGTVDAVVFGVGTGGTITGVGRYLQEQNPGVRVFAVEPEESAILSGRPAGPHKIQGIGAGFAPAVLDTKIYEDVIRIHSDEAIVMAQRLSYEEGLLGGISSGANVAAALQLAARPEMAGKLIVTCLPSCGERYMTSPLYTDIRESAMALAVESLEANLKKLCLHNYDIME

Chain of CYSL-1 (Q93244 whole entry R259K): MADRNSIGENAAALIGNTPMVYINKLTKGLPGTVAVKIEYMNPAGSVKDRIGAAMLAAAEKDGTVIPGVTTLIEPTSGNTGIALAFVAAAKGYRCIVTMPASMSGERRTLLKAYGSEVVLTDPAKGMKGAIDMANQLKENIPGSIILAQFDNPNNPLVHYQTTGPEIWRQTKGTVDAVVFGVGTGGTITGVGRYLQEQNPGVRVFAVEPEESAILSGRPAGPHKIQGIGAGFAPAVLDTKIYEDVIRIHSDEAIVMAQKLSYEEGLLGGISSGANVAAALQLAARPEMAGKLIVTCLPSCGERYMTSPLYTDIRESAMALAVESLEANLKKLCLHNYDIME

For `CC(=O)OC[C@H](N)C(=O)O` [OAS], the O-acetylserine sulfhydrylase assay (CYSL-1) was “exhibited levels of OAS sulfhydrylase activity similar to that of wild-type CYSL-1”.

GLPPPPSTNPEYYI (peptide, UniProt G5EBV0 710-723, looked up) [EGL-9 C-terminal peptide, last 14 residues]: binds (recombinant CYSL-1).

PPSTNPEYYI (peptide, UniProt G5EBV0 714-723, looked up) [EGL-9 C-terminal peptide, last 10 residues]: binds (recombinant CYSL-1).
